Results: patent US20110263454A1, “Methods of Identifying Functional Characteristics of Promoters, Transcription Modifying Proteins and Transcription Modulating Agents” (Salk Institute for Biological Studies, priority 2008, published 2011)

B1: RARa: Retinoic acid receptor α (NR1B1), nuclear hormone receptor cDNA driver (protein, UniProt P10276 1-462, looked up)
Retinoic acid receptor alpha: MASNSSSCPTPGGGHLNGYPVPPYAFFFPPMLGGLSPPGALTTLQHQLPVSGYSTPSPATIETQSSSSEEIVPSPPSPPPLPRIYKPCFVCQDKSSGYHYGVSACEGCKGFFRRSIQKNMVYTCHRDKNCIINKVTRNRCQYCRLQKCFEVGMSKESVRNDRNKKKKEVPKPECSESYTLTPEVGELIEKVRKAHQETFPALCQLGKYTTNNSSEQRVSLDIDLWDKFSELSTKCIIKTVEFAKQLPGFTTLTIADQITLLKAACLDILILRICTRYTPEQDTMTFSDGLTLNRTQMHNAGFGPLTDLVFAFANQLLPLEMDDAETGLLSAICLICGDRQDLEQPDRVDMLQEPLLEALKVYVRKRRPSRPHMFPKMLMKITDLRSISAKGAERVITLKMEIPGSMPPLIQEMLENSEGLDTLSGQPGGGGRDGGGLAPPPGSCSPSLSPSSNRSSPATHSP
B2: RVRb: Rev-Erb β (NR1D2, alternative name RVR), cDNA driver (protein, UniProt Q14995 1-579, looked up)
Nuclear receptor subfamily 1 …: MEVNAGGVIAYISSSSSASSPASCHSEGSENSFQSSSSSVPSSPNSSNSDTNGNPKNGDLANIEGILKNDRIDCSMKTSKSSAPGMTKSHSGVTKFSGMVLLCKVCGDVASGFHYGVHACEGCKGFFRRSIQQNIQYKKCLKNENCSIMRMNRNRCQQCRFKKCLSVGMSRDAVRFGRIPKREKQRMLIEMQSAMKTMMNSQFSGHLQNDTLVEHHEQTALPAQEQLRPKPQLEQENIKSSSPPSSDFAKEEVIGMVTRAHKDTFMYNQEQQENSAESMQPQRGERIPKNMEQYNLNHDHCGNGLSSHFPCSESQQHLNGQFKGRNIMHYPNGHAICIANGHCMNFSNAYTQRVCDRVPIDGFSQNENKNSYLCNTGGRMHLVCPMSKSPYVDPHKSGHEIWEEFSMSFTPAVKEVVEFAKRIPGFRDLSQHDQVNLLKAGTFEVLMVRFASLFDAKERTVTFLSGKKYSVDDLHSMGAGDLLNSMFEFSEKLNALQLSDEEMSLFTAVVLVSADRSGIENVNSVEALQETLIRALRTLIMKNHPNEASIFTKLLLKLPDLRSLNNMHSEELLAFKVHP
B3: RVRa: Rev-Erb α (NR1D1), cDNA driver (protein, UniProt P20393 1-614, looked up)
Nuclear receptor subfamily 1 …: MTTLDSNNNTGGVITYIGSSGSSPSRTSPESLYSDNSNGSFQSLTQGCPTYFPPSPTGSLTQDPARSFGSIPPSLSDDGSPSSSSSSSSSSSSFYNGSPPGSLQVAMEDSSRVSPSKSTSNITKLNGMVLLCKVCGDVASGFHYGVHACEGCKGFFRRSIQQNIQYKRCLKNENCSIVRINRNRCQQCRFKKCLSVGMSRDAVRFGRIPKREKQRMLAEMQSAMNLANNQLSSQCPLETSPTQHPTPGPMGPSPPPAPVPSPLVGFSQFPQQLTPPRSPSPEPTVEDVISQVARAHREIFTYAHDKLGSSPGNFNANHASGSPPATTPHRWENQGCPPAPNDNNTLAAQRHNEALNGLRQAPSSYPPTWPPGPAHHSCHQSNSNGHRLCPTHVYAAPEGKAPANSPRQGNSKNVLLACPMNMYPHGRSGRTVQEIWEDFSMSFTPAVREVVEFAKHIPGFRDLSQHDQVTLLKAGTFEVLMVRFASLFNVKDQTVMFLSRTTYSLQELGAMGMGDLLSAMFDFSEKLNSLALTEEELGLFTAVVLVSADRSGMENSASVEQLQETLLRALRALVLKNRPLETSRFTKLLLKLPDLRTLNNMHSEKLLSFRVDAQ
B4: RARb: Retinoic acid receptor β (NR1B2), nuclear hormone receptor cDNA driver (protein, UniProt P10826 1-455, looked up)
Retinoic acid receptor beta: MTTSGHACPVPAVNGHMTHYPATPYPLLFPPVIGGLSLPPLHGLHGHPPPSGCSTPSPATIETQSTSSEELVPSPPSPLPPPRVYKPCFVCQDKSSGYHYGVSACEGCKGFFRRSIQKNMIYTCHRDKNCVINKVTRNRCQYCRLQKCFEVGMSKESVRNDRNKKKKETSKQECTESYEMTAELDDLTEKIRKAHQETFPSLCQLGKYTTNSSADHRVRLDLGLWDKFSELATKCIIKIVEFAKRLPGFTGLTIADQITLLKAACLDILILRICTRYTPEQDTMTFSDGLTLNRTQMHNAGFGPLTDLVFTFANQLLPLEMDDTETGLLSAICLICGDRQDLEEPTKVDKLQEPLLEALKIYIRKRRPSKPHMFPKILMKITDLRSISAKGAERVITLKMEIPGSMPPLIQEMLENSEGHEPLTPSSSGNTAEHSPSISPSSVENSGVSQSPLVQ

Tested on: mPOMC promoter
Assay: NHR-promoter luciferase screen, mPOMC promoter
Type: cell-based, mouse
Conditions: Table 6d; luciferase activity relative to control (control = 1.00)
Description: (§1) The use, feasibility, and reproducibility of the functional NHR-promoter screen in a 48-well format have been tested validated. Briefly, there were co-expressed 50 ng of each NHR/NHR homodimer or NHR/RXR heterodimer with 100 ng promoter/luciferase construct and 50 ng of LacZ (as a control for transfection efficiency) in CV-1 cells using Fugene HD (Roche) as a transfection reagent (alternatively or additionally, a CMV-YFP construct can be used as a transfection control). Each of the nuclear hormone receptors that were used in these experiments was cloned into a pcDNA3.1 vector and comprised a C-terminally linked V5H6 tag. Twenty-four hours after transfection, appropriate ligands were added, where applicable, (see Table 5 for various ligands and concentrations and after 48 hrs, samples were assayed for luciferase and LacZ activity. To measure for luciferase activity 15 ul of sample was added to 30 ul of luciferase buffer (20 mM tricine, 1.07 mM MgCarbonate, 2.67 mM MgSulfate, 0.1 mM Naz-EDTA, 5 mM DTT, 5 mM ATP, 0.15 mg/ml CoA, 0.5 mM Luciferin), mixed briefly, and run in a Perkin Elmer Victor 5 luminometer. Thus, the functional NHR-promoter screen was used to observe the transcriptional activity of 29 promoters from various physiological pathways including inflammation, lipid and sugar metabolism, cholesterol transport, xenobiotic metabolism, and circadian rhythm.
(§2) The promoters that facilitate transcription of the indicated gene products that were tested using the protocols described herein are listed in the first row of the table. The nuclear hormone receptors and, where applicable, ligands that were assayed for their transcriptional effects on the promoters are listed in the first column of the table. The data represent the luciferase activity of each sample normalized to both the lacZ activity of that sample and to a control, e.g., no NHR or ligand, as customary in the art. As described previously, these normalizations allow the transcriptional activity of each reporter cell to be compared to other samples.
(§3) Tables 7-40 show the transcriptional effects of the hormone receptors, and, where applicable, ligands (orphan receptors are screened without ligand), on each individual promoter. […] The control data of each table are shown in their last rows.

First: B1
Second: B2
The “Results of assays of transcription factor (+/- ligand) with mPOMC” value of the first is higher: 1.43 for the first, 0.85 for the second.

First: B3
Second: B4
The “Results of assays of transcription factor (+/- ligand) with mPOMC” value of the first is lower: 1.13 for the first, 1.85 for the second.

Same assay, conditions: mPOMC promoter; HR component with or without ligand

First: B1
Second: B2
The “Luc. act., normalized to lacZ” value of the first is higher: 98.5 for the first, 58.4 for the second.

Going from B3 to B4, the “Luc. act., normalized to lacZ” value rises from 77.9 to 127.4.

Same assay, conditions: mPOMC promoter; HR component with or without ligand; relative to control

Going from B1 to B2, the “Normalized Luc. act., normalized to control” value falls from 1.4 to 0.8.

First: B3
Second: B4
The “Normalized Luc. act., normalized to control” value of the first is lower: 1.1 for the first, 1.8 for the second.

Tested on: hIFNg promoter
Assay: NHR-promoter luciferase screen, hIFNg promoter
Type: cell-based, human
Conditions: IFNg promoter; HR component without or with ligand
Description: as §1, §2, §3

Going from B1 to B2, the “Luc. act., normalized to lacZ” value falls from 22.0 to 19.5.

Compared with B3, B4 is higher in “Luc. act., normalized to lacZ” value: 17.9 for the first, 24.4 for the second.

First: B1
Second: B2
The “Normalized Luc. act., normalized to control” value of the first is higher: 1.4 for the first, 1.2 for the second.

Compared with B3, B4 is higher in “Normalized Luc. act., normalized to control” value: 1.1 for the first, 1.5 for the second.

Same assay, conditions: transcription factor +/- ligand; control = 1.00

First: B1
Second: B2
The “hIFNg promoter reporter activity” value of the first is higher: 1.39 for the first, 1.22 for the second.

First: B3
Second: B4
The “hIFNg promoter reporter activity” value of the first is lower: 1.13 for the first, 1.53 for the second.

Tested on: mDio1 promoter
Assay: NHR-promoter luciferase screen, mDio1 promoter
Type: cell-based, mouse
Conditions: Dio1; HR component without or with its ligand
Description: as §1, §2, §3

First: B1
Second: B2
The “Luc. act., normalized to lacZ” value of the first is lower: 7.4 for the first, 8.8 for the second.

First: B3
Second: B4
The “Luc. act., normalized to lacZ” value of the first is lower: 5.7 for the first, 6.8 for the second.

Compared with B1, B2 is higher in “Normalized Luc. act., normalized to control” value: 1.7 for the first, 2.0 for the second.

Going from B3 to B4, the “Normalized Luc. act., normalized to control” value rises from 1.3 to 1.5.

Same assay, conditions: transcription factor +/- ligand; control = 1.00

Compared with B1, B2 is higher in “mDio1 promoter reporter activity” value: 1.66 for the first, 1.97 for the second.

First: B3
Second: B4
The “mDio1 promoter reporter activity” value of the first is lower: 1.27 for the first, 1.54 for the second.

Tested on: mAdiponectin promoter
Assay: NHR-promoter luciferase screen, mAdiponectin promoter
Type: cell-based, mouse
Conditions: Adiponectin; HR component without or with its ligand
Description: as §1, §2, §3

Going from B1 to B2, the “Luc. act., normalized to lacZ” value falls from 78.6 to 66.3.

First: B3
Second: B4
The “Luc. act., normalized to lacZ” value of the first is lower: 55.2 for the first, 81.2 for the second.

First: B1
Second: B2
The “Normalized Luc. act., normalized to control” value of the first is higher: 1.3 for the first, 1.1 for the second.

Going from B3 to B4, the “Normalized Luc. act., normalized to control” value rises from 0.9 to 1.3.

Same assay, conditions: transcription factor +/- ligand; control = 1.00

Going from B1 to B2, the “mAdiponectin promoter reporter activity” value falls from 1.25 to 1.06.

Compared with B3, B4 is higher in “mAdiponectin promoter reporter activity” value: 0.88 for the first, 1.29 for the second.

Tested on: mPgc1b promoter
Assay: NHR-promoter luciferase screen, mPgc1b promoter
Type: cell-based, mouse
Conditions: PGC1b promoter reporter; co-transfected HR, without or with its ligand
Description: Briefly, there were co-expressed 50 ng of each NHR/NHR homodimer or NHR/RXR heterodimer with 100 ng promoter/luciferase construct and 50 ng of LacZ (as a control for transfection efficiency) in CV-1 cells using Fugene HD (Roche) as a transfection reagent (alternatively or additionally, a CMV-YFP construct can be used as a transfection control). Each of the nuclear hormone receptors that were used in these experiments was cloned into a pcDNA3.1 vector and comprised a C-terminally linked V5H6 tag.
as §2, §3

Compared with B1, B2 is lower in “Luc. act., normalized to lacZ” value: 12.69 for the first, 9.3 for the second.

First: B3
Second: B4
The “Luc. act., normalized to lacZ” value of the first is lower: 8.8 for the first, 14.32 for the second.

Same assay, conditions: PGC1b promoter reporter; co-transfected HR, without or with its ligand; relative to control

Compared with B1, B2 is lower in “Normalized Luc. act., normalized to control” value: 1.1 for the first, 0.8 for the second.

First: B3
Second: B4
The “Normalized Luc. act., normalized to control” value of the first is lower: 0.7 for the first, 1.2 for the second.

Same assay, conditions: mPgc1b promoter-luciferase, CV-1 cells, NHR +/- ligand, control = 1.00

Compared with B1, B2 is lower in “luciferase activity normalized to lacZ activity and to a control, mPgc1b” value: 1.07 for the first, 0.78 for the second.

First: B3
Second: B4
The “luciferase activity normalized to lacZ activity and to a control, mPgc1b” value of the first is lower: 0.74 for the first, 1.21 for the second.

Tested on: hTNFa promoter
Assay: NHR-promoter luciferase screen, hTNFa promoter
Type: cell-based, human
Conditions: TNFa promoter; HR component without or with ligand
Description: as §1, §2, §3

Compared with B1, B2 is lower in “Luc. act., normalized to lacZ” value: 1363.2 for the first, 1017.6 for the second.

Compared with B3, B4 is higher in “Luc. act., normalized to lacZ” value: 1069.4 for the first, 1854.5 for the second.

First: B1
Second: B2
The “Normalized Luc. act., normalized to control” value of the first is higher: 1.4 for the first, 1.0 for the second.

Compared with B3, B4 is higher in “Normalized Luc. act., normalized to control” value: 1.1 for the first, 1.9 for the second.

Same assay, conditions: transcription factor +/- ligand; control = 1.00

Compared with B1, B2 is lower in “hTNFa promoter reporter activity” value: 1.39 for the first, 1.04 for the second.

Going from B3 to B4, the “hTNFa promoter reporter activity” value rises from 1.09 to 1.89.
